The DeepSol protein solubility set

Assay: soluble on expression in E. coli; label from the status in PepcDB or PDB records

| Sequence | soluble on expression in E. coli |
| --- | --- |
| MGSDKIHHHHHHMNYIKRSLERKFLHMSKFFKAVLVTGARQVGKTTMLKHLAEGQNRTYVTLDNLMARNLAKTDPVLFFQTYKPPVLIDEVQYAPELFSQIKILCDSSEEPGLIWLTGSQQFEMMKNVRETLAGRIGIMTLYSLSKNEKDGIEFENSLDFSPECLFARQRIAEKNDVLKVFEHIWRGGMPQVLHADAEQRQEYYNAYVNTYLMRDVAELGGITDSLRFAKFLTACAALTSEQVNYKNLSEAADISQPTAKEWLRLLEGLGIVYLLQPYANNAFKRLTKAPKLYFCDTGLCAHLSMWLTPETLMNGAASGHYFENHVVAEMLKSYAYSASKAVITYFRDSNAKEIDIIVEANNQLHPLEIKKSASPNSREINKYTILDKSSIKRGHGGILCLCEEVVPIDEQNCFIPCNLI | not soluble |
| MGSDKIHHHHHHMNYKELNKIFKETLSLRWDPVAVRMMRPGEEKPAQGIEPTVPLRHCQSIITARRGNCLYMPPRSHACPDGTGVLGLVEMSPKLRSGDLYLLFKKMPNIETARQMISSRPEFKAGSYEATLLAPLEKAAFEPDVVVFTLWPEQAMWLCCAQTYATGERQDFKTSGFNSACADLIVQTMTSGEMNISFGCYGARASSEIDDFELYLAIPTALLEPIAQALLKLSQKSIPEERKKIYLHPVMDKVGSRRAQSQGEGARVELFVDTERCMGDGLCVDFCPSGVLAMVEAGDRKVAQALHPDACSACYTCVGQCPQQAIQLSYN | not soluble |
| MGSDKIHHHHHHMNYNKLSSATIQGIEAMKIDVEVDFDNRSVFNDIDVVGLGDTAVKESRKRVKSAILNSGFSLPHGKYVVNLAPGDVRKEGSMLDLPIALCILASTGIVQVSENILAIGELSLNGEVKRVNGVLPVLLSLSEMFSGTVLIPKENEEEAKCVKELDIYAVESLRECVEFLRGDRTLKRIEYSGIENTNLEYEIDFSDVRDHEMVKRAVEIAVAGFHNILMVGNPGSGKTMIAKRIPTIFPPMSEEEILETSKVYSASGYPGIVKLRPFRAPHHTASTVSIIGGGTNPRPGEISLAHNGVLFLDELPEFKRDVLEALRQPLEEGIVTVARAKFTVTYPARFMLVGAMNPCPCGNLGDPKQPCVCSPRDIMRYRKKISGPLLDRMDLVINVPKLSFEEMMKKPEGEKSSSIRERVMKAREIQKRRFRDTHISCNSQMSHRMLRRFVQLDEKSEDLLKRYVERYGLSGRKIDKVLKISRTIADLEGSNGVEMSHLAEALQYRFRES | not soluble |
| MGSDKIHHHHHHMNYPSLVWHLKRTELFADFELAELEQVAATTPYRSYQPGEVIYRMDDPADALYFVRSGLVKISKLFPNGKEAILGVVGQHDTFGELLLQPEERRPTQAEALERTTLIVLPRQELQKLLSTKPDLAMKLIRLMAARLFEAQAWTATVSAYSAPERVASLLYRLAREFGRPHSQGVELNLKLNQEDIARMVGATRETVSHSLSRLKKGGAIVRARSPIIVQMDALKAFIDQEH | not soluble |
| MGSDKIHHHHHHMPATAYSAIHGRDIRTLKQCPPVVDAMTYGFMVLLPCDVVVDKGTFSWDWQIPEPVTQNHPRAPLSFHTPGQLAGSPFATTGQAALKFNSFWTIEVEDGWSLFATHPVNREDLPFRLVTGLVDSDRFSDGGINFPAVWTEAGFSGVLAKGTPVAQCFAVPRAAPQLEYEVFDEERQASYARTVADVLSTPGVYRKRFRARRGRSTGE | not soluble |
| MGSDKIHHHHHHMPELATREFWKDLQPIPDCFKPDAKPEVYLRNAPTEDERLYVPFTETVKSRPLWISPSENRWCDILMATSAGLVNRHYHPHEVFAYTISGKWGYLEHDWTATAGDFVYETPGEGHTLVAYEHEQPMRAFFIVKGPLVWLDEKGNADGIFDVHDYIAMCREHYDKIGVGAAYIDSLFR | not soluble |
| MGSDKIHHHHHHMPEQNSFPPEVDHTRPNPARIYDYGLGGHHNFAADRDQFEKLLEVDPDARLVVSANRAFLRRAVRYCLRQGITQFLDLGSGIPTVGNVHEAAHQLNPRARVVYVDNEPIAVAHTRRLLRENENAEIVQADLRDPDAILGAPETQRLLDLSKPVGLMMVAVLHWVPSADVAGLLSRYREVLAPGSYLAISHLTSEHLPEQMGEVEDVFAETTEPVVYRPRSEAVKLFEGFELVPPGVVYTSQWQSEPYEMVEPPERTKIWAAVGRKL | not soluble |
| MGSDKIHHHHHHMPFVSYAQNLEDVRLWRALKLFPRGFYIDVGANHPRIDSVTLAFYERGWRGINIEPLPHLHRELERERPEDLNLNLAIGEREGRATLYEMAASGLSTLDPELARQRQAEGCTATPREVKVSTLDAICAAHVEGPIHFLKIDVEGLEGAVLRGLDLNRWRPWLILAETPFDHDPEWKAPLLAAGYRFVHFDGLNGYYLAEEQARLEGAFALPPNLLDDFQLCHGHAMSHPVAPLEQALEQALQRAEDAERALRDWRALPWYRRLFG | not soluble |
